Source: publication PMC7575002

Molecular target: T1, major tail protein gpV of bacteriophage lambda, in free tails (bacteriophage lambda), P03733
T1 chain: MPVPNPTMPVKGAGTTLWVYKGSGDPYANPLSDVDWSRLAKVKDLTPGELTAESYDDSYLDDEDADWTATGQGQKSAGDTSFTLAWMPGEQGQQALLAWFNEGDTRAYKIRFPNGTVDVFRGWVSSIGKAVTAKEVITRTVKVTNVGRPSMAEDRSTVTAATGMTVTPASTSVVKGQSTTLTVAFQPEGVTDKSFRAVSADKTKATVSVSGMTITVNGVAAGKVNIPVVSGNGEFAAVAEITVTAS
Experiment: cryo-EM structure
Details: remark: other sources report otherwise

B1: major tail protein gpV of bacteriophage lambda, in free tails, P03733 1-246 (natural protein)
chain: T1 chain
B1 showed a stoichiometry N of 6.
